Experimental data published in US20220204580A1 (AstraZeneca / MedImmune, published 2022).
Numbered stars: 1 amine (or outer) side, 2 acyl side, 3 side chain; on linkers, the order of the positions; unused ones are H or OH. Bridge positions count the residues as written; N and C are the ends. Square brackets hold non-standard residues; d marks the D form. Side chains are listed from the residue outwards. Ends that are not written are not given here. * marks the point of attachment. C18 diacid = O=C(O)CCCCCCCCCCCCCCCCC(=O)*; γGlu = O=C(O)[C@H](CCC(=O)[*:2])N[*:1]; Aib = CC(C)(N)C(=O)O

T1: human amylin receptor (calcitonin receptor co-expressed with receptor activity modifying protein, RAMP3) (human, UniProt P30988 25-474; O60896 24-148)
T1 sequence (looked up) 1: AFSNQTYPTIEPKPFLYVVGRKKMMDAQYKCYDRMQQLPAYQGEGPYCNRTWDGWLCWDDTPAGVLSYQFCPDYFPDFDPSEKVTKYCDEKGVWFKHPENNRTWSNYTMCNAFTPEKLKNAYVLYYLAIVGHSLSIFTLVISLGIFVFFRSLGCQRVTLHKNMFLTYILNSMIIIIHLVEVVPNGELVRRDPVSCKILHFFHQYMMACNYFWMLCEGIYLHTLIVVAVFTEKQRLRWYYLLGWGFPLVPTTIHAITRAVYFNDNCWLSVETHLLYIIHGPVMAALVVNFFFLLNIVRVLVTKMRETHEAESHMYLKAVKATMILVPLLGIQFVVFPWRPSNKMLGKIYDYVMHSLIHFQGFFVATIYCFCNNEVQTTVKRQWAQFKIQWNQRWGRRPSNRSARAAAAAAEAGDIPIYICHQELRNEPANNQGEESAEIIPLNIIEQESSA
T1 sequence (looked up) 2: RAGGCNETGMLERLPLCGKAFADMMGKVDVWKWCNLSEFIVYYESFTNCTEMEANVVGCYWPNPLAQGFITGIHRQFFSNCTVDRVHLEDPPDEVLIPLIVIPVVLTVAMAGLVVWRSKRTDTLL

T2: human calcitonin receptor (human, UniProt P30988 25-474)
T2 sequence (looked up): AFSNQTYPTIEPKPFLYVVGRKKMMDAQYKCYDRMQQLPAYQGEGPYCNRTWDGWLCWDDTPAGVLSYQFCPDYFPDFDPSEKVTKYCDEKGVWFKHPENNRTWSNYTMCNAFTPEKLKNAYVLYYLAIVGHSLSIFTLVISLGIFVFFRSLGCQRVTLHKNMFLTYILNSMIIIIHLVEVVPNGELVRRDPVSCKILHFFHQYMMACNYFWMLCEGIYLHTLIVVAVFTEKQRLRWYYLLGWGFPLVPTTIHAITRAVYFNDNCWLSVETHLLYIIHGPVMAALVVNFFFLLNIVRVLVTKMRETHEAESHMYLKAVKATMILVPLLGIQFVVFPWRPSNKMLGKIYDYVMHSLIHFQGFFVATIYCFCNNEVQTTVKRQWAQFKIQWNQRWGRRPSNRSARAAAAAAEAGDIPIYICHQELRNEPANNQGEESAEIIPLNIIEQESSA

B1: Peptide 77 (SEQ ID NO: 77) (peptide)
peptide: K([γGlu-γGlu-C18 diacid])CNTATCATQRLANFLRHSS[Aib]NFGPILPPTRVGSNTY-NH2
modifications: disulfide 2-7; N-terminus assumed
SMILES: CC[C@H](C)[C@H](NC(=O)[C@@H]1CCCN1C(=O)CNC(=O)[C@H](Cc1ccccc1)NC(=O)[C@H](CC(N)=O)NC(=O)C(C)(C)NC(=O)[C@H](CO)NC(=O)[C@H](CO)NC(=O)[C@H](Cc1c[nH]cn1)NC(=O)[C@H](CCCNC(=N)N)NC(=O)[C@H](CC(C)C)NC(=O)[C@H](Cc1ccccc1)NC(=O)[C@H](CC(N)=O)NC(=O)[C@H](C)NC(=O)[C@H](CC(C)C)NC(=O)[C@H](CCCNC(=N)N)NC(=O)[C@H](CCC(N)=O)NC(=O)[C@@H](NC(=O)[C@H](C)NC(=O)[C@@H]1CSSC[C@H](NC(=O)[C@@H](N)CCCCNC(=O)CC[C@H](NC(=O)CC[C@H](NC(=O)CCCCCCCCCCCCCCCCC(=O)O)C(=O)O)C(=O)O)C(=O)N[C@@H](CC(N)=O)C(=O)N[C@@H]([C@@H](C)O)C(=O)N[C@@H](C)C(=O)N[C@@H]([C@@H](C)O)C(=O)N1)[C@@H](C)O)C(=O)N[C@@H](CC(C)C)C(=O)N1CCC[C@H]1C(=O)N1CCC[C@H]1C(=O)N[C@H](C(=O)N[C@@H](CCCNC(=N)N)C(=O)N[C@H](C(=O)NCC(=O)N[C@@H](CO)C(=O)N[C@@H](CC(N)=O)C(=O)N[C@H](C(=O)N[C@@H](Cc1ccc(O)cc1)C(N)=O)[C@@H](C)O)C(C)C)[C@@H](C)O
B2: Peptide 78 (SEQ ID NO: 78) (peptide)
peptide: K([γGlu-C18 diacid])KCNTATCATQRLANFLVHSS[Aib]NFGP[Aib]LPPTNVGSNTY-NH2
modifications: disulfide 3-8; N-terminus assumed
SMILES: CC(C)C[C@H](NC(=O)[C@H](CCCNC(=N)N)NC(=O)[C@H](CCC(N)=O)NC(=O)[C@@H](NC(=O)[C@H](C)NC(=O)[C@@H]1CSSC[C@H](NC(=O)[C@H](CCCCN)NC(=O)[C@@H](N)CCCCNC(=O)CC[C@H](NC(=O)CCCCCCCCCCCCCCCCC(=O)O)C(=O)O)C(=O)N[C@@H](CC(N)=O)C(=O)N[C@@H]([C@@H](C)O)C(=O)N[C@@H](C)C(=O)N[C@@H]([C@@H](C)O)C(=O)N1)[C@@H](C)O)C(=O)N[C@@H](C)C(=O)N[C@@H](CC(N)=O)C(=O)N[C@@H](Cc1ccccc1)C(=O)N[C@@H](CC(C)C)C(=O)N[C@H](C(=O)N[C@@H](Cc1c[nH]cn1)C(=O)N[C@@H](CO)C(=O)N[C@@H](CO)C(=O)NC(C)(C)C(=O)N[C@@H](CC(N)=O)C(=O)N[C@@H](Cc1ccccc1)C(=O)NCC(=O)N1CCC[C@H]1C(=O)NC(C)(C)C(=O)N[C@@H](CC(C)C)C(=O)N1CCC[C@H]1C(=O)N1CCC[C@H]1C(=O)N[C@H](C(=O)N[C@@H](CC(N)=O)C(=O)N[C@H](C(=O)NCC(=O)N[C@@H](CO)C(=O)N[C@@H](CC(N)=O)C(=O)N[C@H](C(=O)N[C@@H](Cc1ccc(O)cc1)C(N)=O)[C@@H](C)O)C(C)C)[C@@H](C)O)C(C)C
B3: Peptide 79 (SEQ ID NO: 79) (peptide)
peptide: K([γGlu-C18 diacid])KCNTATCATQRLANFLVHSS[Aib]NFGPI[Aib]PPTNVGSNTY-NH2
modifications: disulfide 3-8; N-terminus assumed
SMILES: CC[C@H](C)[C@H](NC(=O)[C@@H]1CCCN1C(=O)CNC(=O)[C@H](Cc1ccccc1)NC(=O)[C@H](CC(N)=O)NC(=O)C(C)(C)NC(=O)[C@H](CO)NC(=O)[C@H](CO)NC(=O)[C@H](Cc1c[nH]cn1)NC(=O)[C@@H](NC(=O)[C@H](CC(C)C)NC(=O)[C@H](Cc1ccccc1)NC(=O)[C@H](CC(N)=O)NC(=O)[C@H](C)NC(=O)[C@H](CC(C)C)NC(=O)[C@H](CCCNC(=N)N)NC(=O)[C@H](CCC(N)=O)NC(=O)[C@@H](NC(=O)[C@H](C)NC(=O)[C@@H]1CSSC[C@H](NC(=O)[C@H](CCCCN)NC(=O)[C@@H](N)CCCCNC(=O)CC[C@H](NC(=O)CCCCCCCCCCCCCCCCC(=O)O)C(=O)O)C(=O)N[C@@H](CC(N)=O)C(=O)N[C@@H]([C@@H](C)O)C(=O)N[C@@H](C)C(=O)N[C@@H]([C@@H](C)O)C(=O)N1)[C@@H](C)O)C(C)C)C(=O)NC(C)(C)C(=O)N1CCC[C@H]1C(=O)N1CCC[C@H]1C(=O)N[C@H](C(=O)N[C@@H](CC(N)=O)C(=O)N[C@H](C(=O)NCC(=O)N[C@@H](CO)C(=O)N[C@@H](CC(N)=O)C(=O)N[C@H](C(=O)N[C@@H](Cc1ccc(O)cc1)C(N)=O)[C@@H](C)O)C(C)C)[C@@H](C)O
B4: Peptide 80 (SEQ ID NO: 80) (peptide)
peptide: K([γGlu-C18 diacid])KCNTATCATQRLANFLVHSS[Aib]NFGPILPPT[Aib]VGSNTY-NH2
modifications: disulfide 3-8; N-terminus assumed
SMILES: CC[C@H](C)[C@H](NC(=O)[C@@H]1CCCN1C(=O)CNC(=O)[C@H](Cc1ccccc1)NC(=O)[C@H](CC(N)=O)NC(=O)C(C)(C)NC(=O)[C@H](CO)NC(=O)[C@H](CO)NC(=O)[C@H](Cc1c[nH]cn1)NC(=O)[C@@H](NC(=O)[C@H](CC(C)C)NC(=O)[C@H](Cc1ccccc1)NC(=O)[C@H](CC(N)=O)NC(=O)[C@H](C)NC(=O)[C@H](CC(C)C)NC(=O)[C@H](CCCNC(=N)N)NC(=O)[C@H](CCC(N)=O)NC(=O)[C@@H](NC(=O)[C@H](C)NC(=O)[C@@H]1CSSC[C@H](NC(=O)[C@H](CCCCN)NC(=O)[C@@H](N)CCCCNC(=O)CC[C@H](NC(=O)CCCCCCCCCCCCCCCCC(=O)O)C(=O)O)C(=O)N[C@@H](CC(N)=O)C(=O)N[C@@H]([C@@H](C)O)C(=O)N[C@@H](C)C(=O)N[C@@H]([C@@H](C)O)C(=O)N1)[C@@H](C)O)C(C)C)C(=O)N[C@@H](CC(C)C)C(=O)N1CCC[C@H]1C(=O)N1CCC[C@H]1C(=O)N[C@H](C(=O)NC(C)(C)C(=O)N[C@H](C(=O)NCC(=O)N[C@@H](CO)C(=O)N[C@@H](CC(N)=O)C(=O)N[C@H](C(=O)N[C@@H](Cc1ccc(O)cc1)C(N)=O)[C@@H](C)O)C(C)C)[C@@H](C)O
B5: Peptide 81 (SEQ ID NO: 81) (peptide)
peptide: K([γGlu-C18 diacid])KCNTATCATQRLANFLVHSS[Aib]NFGPILPPTNV[Aib]SNTY-NH2
modifications: disulfide 3-8; N-terminus assumed
SMILES: CC[C@H](C)[C@H](NC(=O)[C@@H]1CCCN1C(=O)CNC(=O)[C@H](Cc1ccccc1)NC(=O)[C@H](CC(N)=O)NC(=O)C(C)(C)NC(=O)[C@H](CO)NC(=O)[C@H](CO)NC(=O)[C@H](Cc1c[nH]cn1)NC(=O)[C@@H](NC(=O)[C@H](CC(C)C)NC(=O)[C@H](Cc1ccccc1)NC(=O)[C@H](CC(N)=O)NC(=O)[C@H](C)NC(=O)[C@H](CC(C)C)NC(=O)[C@H](CCCNC(=N)N)NC(=O)[C@H](CCC(N)=O)NC(=O)[C@@H](NC(=O)[C@H](C)NC(=O)[C@@H]1CSSC[C@H](NC(=O)[C@H](CCCCN)NC(=O)[C@@H](N)CCCCNC(=O)CC[C@H](NC(=O)CCCCCCCCCCCCCCCCC(=O)O)C(=O)O)C(=O)N[C@@H](CC(N)=O)C(=O)N[C@@H]([C@@H](C)O)C(=O)N[C@@H](C)C(=O)N[C@@H]([C@@H](C)O)C(=O)N1)[C@@H](C)O)C(C)C)C(=O)N[C@@H](CC(C)C)C(=O)N1CCC[C@H]1C(=O)N1CCC[C@H]1C(=O)N[C@H](C(=O)N[C@@H](CC(N)=O)C(=O)N[C@H](C(=O)NC(C)(C)C(=O)N[C@@H](CO)C(=O)N[C@@H](CC(N)=O)C(=O)N[C@H](C(=O)N[C@@H](Cc1ccc(O)cc1)C(N)=O)[C@@H](C)O)C(C)C)[C@@H](C)O
B6: Peptide 82 (SEQ ID NO: 82) (peptide)
peptide: K([γGlu-C18 diacid])KCNTATCATQRLANFLVHSS[Aib]NFGPILPPTNVGS[Aib]TY-NH2
modifications: disulfide 3-8; N-terminus assumed
SMILES: CC[C@H](C)[C@H](NC(=O)[C@@H]1CCCN1C(=O)CNC(=O)[C@H](Cc1ccccc1)NC(=O)[C@H](CC(N)=O)NC(=O)C(C)(C)NC(=O)[C@H](CO)NC(=O)[C@H](CO)NC(=O)[C@H](Cc1c[nH]cn1)NC(=O)[C@@H](NC(=O)[C@H](CC(C)C)NC(=O)[C@H](Cc1ccccc1)NC(=O)[C@H](CC(N)=O)NC(=O)[C@H](C)NC(=O)[C@H](CC(C)C)NC(=O)[C@H](CCCNC(=N)N)NC(=O)[C@H](CCC(N)=O)NC(=O)[C@@H](NC(=O)[C@H](C)NC(=O)[C@@H]1CSSC[C@H](NC(=O)[C@H](CCCCN)NC(=O)[C@@H](N)CCCCNC(=O)CC[C@H](NC(=O)CCCCCCCCCCCCCCCCC(=O)O)C(=O)O)C(=O)N[C@@H](CC(N)=O)C(=O)N[C@@H]([C@@H](C)O)C(=O)N[C@@H](C)C(=O)N[C@@H]([C@@H](C)O)C(=O)N1)[C@@H](C)O)C(C)C)C(=O)N[C@@H](CC(C)C)C(=O)N1CCC[C@H]1C(=O)N1CCC[C@H]1C(=O)N[C@H](C(=O)N[C@@H](CC(N)=O)C(=O)N[C@H](C(=O)NCC(=O)N[C@@H](CO)C(=O)NC(C)(C)C(=O)N[C@H](C(=O)N[C@@H](Cc1ccc(O)cc1)C(N)=O)[C@@H](C)O)C(C)C)[C@@H](C)O

Legend:
[1] = molecular target: T1, human amylin receptor (calcitonin …); assay: cell-based or functional assay
[2] = molecular target: T2, human calcitonin receptor; assay: cell-based or functional assay

Binder	EC50 (cAMP production) [1] [pM]	Ratio (EC50 hCTR / EC50 hAMYR3) [1]	EC50 (cAMP production) [2] [nM]
B1	231	11	2.52
B2	288	11	3.15
B3	659	7	4.8
B4	407	7	2.97
B5	404	7	2.76
B6	514	8	4.28
